# Experimental data: patent US20260167699A1 (Chugai, published 2026)
# Numbering of substitutions follows the chain as printed.
# T1: FcγRIIb (human, UniProt P31994 43-217)
# T1 construct: extracellular domain; also called 2b
# T1 sequence: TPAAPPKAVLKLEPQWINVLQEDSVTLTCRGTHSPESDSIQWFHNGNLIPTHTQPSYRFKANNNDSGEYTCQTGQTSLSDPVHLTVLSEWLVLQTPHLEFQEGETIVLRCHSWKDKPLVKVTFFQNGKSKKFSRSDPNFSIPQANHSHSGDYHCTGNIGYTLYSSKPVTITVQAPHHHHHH
# T2: FcγRIIa(R) (human, UniProt P12318 34-217)
# T2 construct: extracellular domain; also called 2aR
# T2 sequence: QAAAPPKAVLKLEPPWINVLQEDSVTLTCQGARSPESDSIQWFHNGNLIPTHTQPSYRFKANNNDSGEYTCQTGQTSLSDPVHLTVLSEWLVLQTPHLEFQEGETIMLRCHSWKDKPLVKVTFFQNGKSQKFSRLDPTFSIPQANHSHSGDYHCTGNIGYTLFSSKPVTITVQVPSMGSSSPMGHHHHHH
# T3: FcγRIIa(H) (human, UniProt P12318 34-217)
# T3 construct: extracellular domain; also called 2aH
# T3 sequence: T2 sequence with R134H
# B1: GpH7-A5/GpH7-B3 variant S324_08L/GpL16-k0 (antibody, human IgG1, kappa)
# heavy 1: not shown
# heavy 2: not shown
# light: DIVMTQSPLSLPVTPGEPASISCQASESLVHSNRNTYLHWYLQKPGQSPQLLIYKVSNRFSGVPDRFSGSGSGTDFTLKISRVEAEDVGVYYCSQNTHVPPTFGQGTKVEIERTVAAPSVFIFPPSDEQLKSGTASVVCLLNNFYPREAKVQWKVDNALQSGNSQESVTEQDSKDSTYSLSSTLTLSKADYEKHKVYACEVTHQGLSSPVTKSFNRGEC
# notes: He Ab: heterodimerized IgG1, one H chain mutated
# B2: GpH7-A5/GpH7-B3 variant S324_10E/GpL16-k0 (antibody, human IgG1, kappa)
# heavy 1: not shown
# heavy 2: not shown
# light: B1 light
# notes: as for B1
# B3: GpH7-A5/GpH7-B3 variant Y296_12R/GpL16-k0 (antibody, human IgG1, kappa)
# heavy 1: not shown
# heavy 2: not shown
# light: B1 light
# notes: as for B1
# B4: GpH7-A5/GpH7-B3 variant Y300_03V/GpL16-k0 (antibody, human IgG1, kappa)
# heavy 1: not shown
# heavy 2: not shown
# light: B1 light
# notes: as for B1
# B5: GpH7-A5/GpH7-B3 variant Y296_10E/GpL16-k0 (antibody, human IgG1, kappa)
# heavy 1: not shown
# heavy 2: not shown
# light: B1 light
# notes: as for B1
# B6: GpH7-A5/GpH7-B3 variant Y296_19Q/GpL16-k0 (antibody, human IgG1, kappa)
# heavy 1: not shown
# heavy 2: not shown
# light: B1 light
# notes: as for B1
# B7: GpH7-A5/GpH7-B3 variant Y296_01G/GpL16-k0 (antibody, human IgG1, kappa)
# heavy 1: not shown
# heavy 2: not shown
# light: B1 light
# notes: as for B1
# B8: GpH7-A5/GpH7-B3 variant S324_19Q/GpL16-k0 (antibody, human IgG1, kappa)
# heavy 1: not shown
# heavy 2: not shown
# light: B1 light
# notes: as for B1
# B9: GpH7-A5/GpH7-B3 variant Y296_06M/GpL16-k0 (antibody, human IgG1, kappa)
# heavy 1: not shown
# heavy 2: not shown
# light: B1 light
# notes: as for B1
# B10: GpH7-A5/GpH7-B3 variant Y296_18N/GpL16-k0 (antibody, human IgG1, kappa)
# heavy 1: not shown
# heavy 2: not shown
# light: B1 light
# notes: as for B1
# B11: GpH7-A5/GpH7-B3 variant Y300_04F/GpL16-k0 (antibody, human IgG1, kappa)
# heavy 1: not shown
# heavy 2: not shown
# light: B1 light
# notes: as for B1
# B12: GpH7-A5/GpH7-B3 variant Y300_07I/GpL16-k0 (antibody, human IgG1, kappa)
# heavy 1: not shown
# heavy 2: not shown
# light: B1 light
# notes: as for B1
# B13: GpH7-A5/GpH7-B3 variant S324_09D/GpL16-k0 (antibody, human IgG1, kappa)
# heavy 1: not shown
# heavy 2: not shown
# light: B1 light
# notes: as for B1
# B14: GpH7-A5/GpH7-B3 variant Y296_09D/GpL16-k0 (antibody, human IgG1, kappa)
# heavy 1: not shown
# heavy 2: not shown
# light: B1 light
# notes: as for B1
# B15: GpH7-A5/GpH7-B3 variant Y296_11K/GpL16-k0 (antibody, human IgG1, kappa)
# heavy 1: not shown
# heavy 2: not shown
# light: B1 light
# notes: as for B1
# B16: GpH7-A5/GpH7-B3 variant Y296_16H/GpL16-k0 (antibody, human IgG1, kappa)
# heavy 1: not shown
# heavy 2: not shown
# light: B1 light
# notes: as for B1
# B17: GpH7-A5/GpH7-B3 variant Y296_14T/GpL16-k0 (antibody, human IgG1, kappa)
# heavy 1: not shown
# heavy 2: not shown
# light: B1 light
# notes: as for B1
# B18: GpH7-A5/GpH7-B3 variant S324_18N/GpL16-k0 (antibody, human IgG1, kappa)
# heavy 1: not shown
# heavy 2: not shown
# light: B1 light
# notes: as for B1
# B19: GpH7-A5/GpH7-B3 variant Y296_13S/GpL16-k0 (antibody, human IgG1, kappa)
# heavy 1: not shown
# heavy 2: not shown
# light: B1 light
# notes: as for B1
# B20: GpH7-A5/GpH7-B3 variant S324_12R/GpL16-k0 (antibody, human IgG1, kappa)
# heavy 1: not shown
# heavy 2: not shown
# light: B1 light
# notes: as for B1
# B21: GpH7-A5/GpH7-B3 variant Y296_07I/GpL16-k0 (antibody, human IgG1, kappa)
# heavy 1: not shown
# heavy 2: not shown
# light: B1 light
# notes: as for B1
# B22: GpH7-A5/GpH7-B3 variant Y296_02A/GpL16-k0 (antibody, human IgG1, kappa)
# heavy 1: not shown
# heavy 2: not shown
# light: B1 light
# notes: as for B1
# B23: GpH7-A5/GpH7-B3 variant Y296_04F/GpL16-k0 (antibody, human IgG1, kappa)
# heavy 1: not shown
# heavy 2: not shown
# light: B1 light
# notes: as for B1
# B24: GpH7-A5/GpH7-B3 variant Y300_02A/GpL16-k0 (antibody, human IgG1, kappa)
# heavy 1: not shown
# heavy 2: not shown
# light: B1 light
# notes: as for B1
# B25: GpH7-A5/GpH7-B3 variant Y296_20W/GpL16-k0 (antibody, human IgG1, kappa)
# heavy 1: not shown
# heavy 2: not shown
# light: B1 light
# notes: as for B1
# B26: GpH7-A5/GpH7-B3 variant Y296_03V/GpL16-k0 (antibody, human IgG1, kappa)
# heavy 1: not shown
# heavy 2: not shown
# light: B1 light
# notes: as for B1
# B27: GpH7-A5/GpH7-B3 variant Y300_09D/GpL16-k0 (antibody, human IgG1, kappa)
# heavy 1: not shown
# heavy 2: not shown
# light: B1 light
# notes: as for B1
# B28: GpH7-A5/GpH7-B3 variant Y300_10E/GpL16-k0 (antibody, human IgG1, kappa)
# heavy 1: not shown
# heavy 2: not shown
# light: B1 light
# notes: as for B1
# B29: GpH7-A5/GpH7-B3 variant Y300_01G/GpL16-k0 (antibody, human IgG1, kappa)
# heavy 1: not shown
# heavy 2: not shown
# light: B1 light
# notes: as for B1
# B30: GpH7-A5/GpH7-B3 variant Y300_08L/GpL16-k0 (antibody, human IgG1, kappa)
# heavy 1: not shown
# heavy 2: not shown
# light: B1 light
# notes: as for B1
# B31: GpH7-A5/GpH7-B3 variant S324_16H/GpL16-k0 (antibody, human IgG1, kappa)
# heavy 1: not shown
# heavy 2: not shown
# light: B1 light
# notes: as for B1
# B32: GpH7-A5/GpH7-B3 variant Y300_06M/GpL16-k0 (antibody, human IgG1, kappa)
# heavy 1: not shown
# heavy 2: not shown
# light: B1 light
# notes: as for B1
# B33: GpH7-A5/GpH7-B3 variant S324_15Y/GpL16-k0 (antibody, human IgG1, kappa)
# heavy 1: not shown
# heavy 2: not shown
# light: B1 light
# notes: as for B1
# B34: GpH7-A5/GpH7-B3 variant S324_11K/GpL16-k0 (antibody, human IgG1, kappa)
# heavy 1: not shown
# heavy 2: not shown
# light: B1 light
# notes: as for B1
# B35: GpH7-A5/GpH7-B3 variant Y296_08L/GpL16-k0 (antibody, human IgG1, kappa)
# heavy 1: not shown
# heavy 2: not shown
# light: B1 light
# notes: as for B1
# Target: T4, FcγRIa (human, UniProt P12314 16-292)
# T4 construct: extracellular domain; also called 1a
# T4 sequence (P12314 other isoform, or with tags, fused parts or gaps): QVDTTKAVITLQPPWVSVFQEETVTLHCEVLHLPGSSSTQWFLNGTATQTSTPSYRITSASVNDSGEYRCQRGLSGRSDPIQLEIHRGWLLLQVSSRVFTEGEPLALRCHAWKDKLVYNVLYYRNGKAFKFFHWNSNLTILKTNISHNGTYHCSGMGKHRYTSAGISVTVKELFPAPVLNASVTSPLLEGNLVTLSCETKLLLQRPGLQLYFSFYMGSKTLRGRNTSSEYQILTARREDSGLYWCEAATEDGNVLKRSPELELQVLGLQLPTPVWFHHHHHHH
# Test: SPR, relative to GpH7-A5/GpH7-B3/GpL16-k0 =100
row,He/Con 1a [%],Binder
1,97.3,B1
2,98.9,B2
3,103,B3
4,110,B4
5,102,B5
6,108,B6
7,99.4,B7
8,106,B8
9,101,B9
10,102,B10
11,102,B11
12,102,B12
13,97.7,B13
14,103,B14
15,102,B15
16,103,B16
17,102,B17
18,109,B18

row,He/Con 1a [%],Binder
1,102,B19
2,95.9,B20
3,101,B21
4,99.8,B22
5,101,B23
6,106,B24
7,107,B25
8,101,B26
9,106,B27
10,108,B28
11,110,B29
12,107,B30
13,106,B31
14,106,B32
15,107,B33
16,96.3,B34
17,101,B35

# Target: T1, FcγRIIb
# Test: SPR, relative to GpH7-A5/GpH7-B3/GpL16-k0 =100
row,He/Con 2b [%],Binder
1,117,B1
2,101,B2
3,80.5,B3
4,96.5,B4
5,99.4,B5
6,90.5,B6
7,80.4,B7
8,87.2,B8
9,89,B9
10,92.8,B10
11,106,B11
12,97.4,B12
13,112,B13
14,100,B14
15,73.8,B15
16,93.5,B16
17,89.4,B17
18,106,B18

row,He/Con 2b [%],Binder
1,87.5,B19
2,82.4,B20
3,85.5,B21
4,83.1,B22
5,101,B23
6,90.5,B24
7,105,B25
8,80.4,B26
9,122,B27
10,175,B28
11,63.2,B29
12,96.1,B30
13,109,B31
14,110,B32
15,115,B33
16,89.6,B34
17,83.5,B35

# Target: T2, FcγRIIa(R)
# Test: SPR, relative to GpH7-A5/GpH7-B3/GpL16-k0 =100
row,He/Con 2aR [%],Binder
1,110,B1
2,99,B2
3,95.3,B3
4,96.8,B4
5,98.2,B5
6,97.9,B6
7,91.6,B7
8,86.8,B8
9,96.8,B9
10,99.6,B10
11,103,B11
12,90.9,B12
13,102,B13
14,101,B14
15,90.3,B15
16,100,B16
17,98.6,B17
18,101,B18

row,He/Con 2aR [%],Binder
1,97.5,B19
2,84,B20
3,96.7,B21
4,93,B22
5,105,B23
6,92.9,B24
7,105,B25
8,92,B26
9,105,B27
10,127,B28
11,66.6,B29
12,96.9,B30
13,105,B31
14,105,B32
15,107,B33
16,91,B34
17,93.7,B35

# Target: T3, FcγRIIa(H)
# Test: SPR, relative to GpH7-A5/GpH7-B3/GpL16-k0 =100
row,He/Con 2aH [%],Binder
1,106,B1
2,114,B2
3,89.1,B3
4,109,B4
5,94,B5
6,94.3,B6
7,91.6,B7
8,106,B8
9,94.2,B9
10,101,B10
11,103,B11
12,120,B12
13,117,B13
14,102,B14
15,83.7,B15
16,101,B16
17,97.2,B17
18,109,B18

row,He/Con 2aH [%],Binder
1,96.1,B19
2,107,B20
3,92.7,B21
4,89.1,B22
5,97.8,B23
6,104,B24
7,95.4,B25
8,86.9,B26
9,101,B27
10,108,B28
11,82.6,B29
12,120,B30
13,113,B31
14,116,B32
15,114,B33
16,102,B34
17,86.9,B35
